The source of these data is US20220168396A1, “MULTI-RECEPTOR AGONIST AND MEDICAL USE THEREOF” (published 2022).

Test [1] concerns the target human glucagon-like peptide-1 receptor (human, UniProt P43220). Description: cell-based or functional assay.
The target of test [2] is T1, human glucose-dependent insulinotropic peptide receptor (human, UniProt P48546).
T1 sequence: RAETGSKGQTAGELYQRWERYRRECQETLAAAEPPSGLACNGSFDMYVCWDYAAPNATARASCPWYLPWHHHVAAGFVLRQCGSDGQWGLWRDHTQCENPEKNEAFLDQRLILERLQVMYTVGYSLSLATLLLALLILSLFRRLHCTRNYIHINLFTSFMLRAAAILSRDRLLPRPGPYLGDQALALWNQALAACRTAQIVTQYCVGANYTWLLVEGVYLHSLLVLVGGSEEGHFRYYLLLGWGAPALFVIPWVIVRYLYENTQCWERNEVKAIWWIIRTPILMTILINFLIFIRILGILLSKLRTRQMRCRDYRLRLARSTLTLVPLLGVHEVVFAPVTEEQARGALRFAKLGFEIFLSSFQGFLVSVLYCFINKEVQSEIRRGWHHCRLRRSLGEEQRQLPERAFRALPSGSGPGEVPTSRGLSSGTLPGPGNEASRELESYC
The experiment in a line: cell-based or functional assay.

Square brackets hold non-standard residues; d marks the D form. Ends that are not written are not given here. Aib = CC(C)(N)C(=O)O

B1: Compound No. 12 (peptide)
peptide: Y[Aib]EGTFTSDYSIYLE[Aib]EAAKEFVNWLLAGGPSSGAPPPSK-NH2
modifications: N-terminus assumed
SMILES: CC[C@H](C)[C@H](NC(=O)[C@H](CO)NC(=O)[C@H](Cc1ccc(O)cc1)NC(=O)[C@H](CC(=O)O)NC(=O)[C@H](CO)NC(=O)[C@@H](NC(=O)[C@H](Cc1ccccc1)NC(=O)[C@@H](NC(=O)CNC(=O)[C@H](CCC(=O)O)NC(=O)C(C)(C)NC(=O)[C@@H](N)Cc1ccc(O)cc1)[C@@H](C)O)[C@@H](C)O)C(=O)N[C@@H](Cc1ccc(O)cc1)C(=O)N[C@@H](CC(C)C)C(=O)N[C@@H](CCC(=O)O)C(=O)NC(C)(C)C(=O)N[C@@H](CCC(=O)O)C(=O)N[C@@H](C)C(=O)N[C@@H](C)C(=O)N[C@@H](CCCCN)C(=O)N[C@@H](CCC(=O)O)C(=O)N[C@@H](Cc1ccccc1)C(=O)N[C@H](C(=O)N[C@@H](CC(N)=O)C(=O)N[C@@H](Cc1c[nH]c2ccccc12)C(=O)N[C@@H](CC(C)C)C(=O)N[C@@H](CC(C)C)C(=O)N[C@@H](C)C(=O)NCC(=O)NCC(=O)N1CCC[C@H]1C(=O)N[C@@H](CO)C(=O)N[C@@H](CO)C(=O)NCC(=O)N[C@@H](C)C(=O)N1CCC[C@H]1C(=O)N1CCC[C@H]1C(=O)N1CCC[C@H]1C(=O)N[C@@H](CO)C(=O)N[C@@H](CCCCN)C(N)=O)C(C)C
With B1, the “Activity for human GLP-1R (EC50 nM), cAMP HTRF” value (shortened to “Activity for human GLP-1R”) in test [1] stood at 0.013 nM. Moreover, the “Activity for human GIPR (EC50 nM), cAMP HTRF” value (“Activity for human GIPR” for short) in test [2] amounted to 0.081 nM.

B2: Compound No. 8 (peptide)
peptide: Y[Aib]EGTFTSDVSIYLEKEAAEEFVNWLLAGGPSSGAPPPSK-NH2
modifications: N-terminus assumed
SMILES: CC[C@H](C)[C@H](NC(=O)[C@H](CO)NC(=O)[C@@H](NC(=O)[C@H](CC(=O)O)NC(=O)[C@H](CO)NC(=O)[C@@H](NC(=O)[C@H](Cc1ccccc1)NC(=O)[C@@H](NC(=O)CNC(=O)[C@H](CCC(=O)O)NC(=O)C(C)(C)NC(=O)[C@@H](N)Cc1ccc(O)cc1)[C@@H](C)O)[C@@H](C)O)C(C)C)C(=O)N[C@@H](Cc1ccc(O)cc1)C(=O)N[C@@H](CC(C)C)C(=O)N[C@@H](CCC(=O)O)C(=O)N[C@@H](CCCCN)C(=O)N[C@@H](CCC(=O)O)C(=O)N[C@@H](C)C(=O)N[C@@H](C)C(=O)N[C@@H](CCC(=O)O)C(=O)N[C@@H](CCC(=O)O)C(=O)N[C@@H](Cc1ccccc1)C(=O)N[C@H](C(=O)N[C@@H](CC(N)=O)C(=O)N[C@@H](Cc1c[nH]c2ccccc12)C(=O)N[C@@H](CC(C)C)C(=O)N[C@@H](CC(C)C)C(=O)N[C@@H](C)C(=O)NCC(=O)NCC(=O)N1CCC[C@H]1C(=O)N[C@@H](CO)C(=O)N[C@@H](CO)C(=O)NCC(=O)N[C@@H](C)C(=O)N1CCC[C@H]1C(=O)N1CCC[C@H]1C(=O)N1CCC[C@H]1C(=O)N[C@@H](CO)C(=O)N[C@@H](CCCCN)C(N)=O)C(C)C
Take B2: the “Activity for human GLP-1R” value in test [1] is 0.07 nM. Besides, in test [2], the “Activity for human GIPR” value stood at 0.12 nM.

B3: Compound No. 9 (peptide)
peptide: Y[Aib]EGTFTSDYSIYLEKEAAKEFVNWLLAGGPSSGAPPPSK-NH2
modifications: N-terminus assumed
SMILES: CC[C@H](C)[C@H](NC(=O)[C@H](CO)NC(=O)[C@H](Cc1ccc(O)cc1)NC(=O)[C@H](CC(=O)O)NC(=O)[C@H](CO)NC(=O)[C@@H](NC(=O)[C@H](Cc1ccccc1)NC(=O)[C@@H](NC(=O)CNC(=O)[C@H](CCC(=O)O)NC(=O)C(C)(C)NC(=O)[C@@H](N)Cc1ccc(O)cc1)[C@@H](C)O)[C@@H](C)O)C(=O)N[C@@H](Cc1ccc(O)cc1)C(=O)N[C@@H](CC(C)C)C(=O)N[C@@H](CCC(=O)O)C(=O)N[C@@H](CCCCN)C(=O)N[C@@H](CCC(=O)O)C(=O)N[C@@H](C)C(=O)N[C@@H](C)C(=O)N[C@@H](CCCCN)C(=O)N[C@@H](CCC(=O)O)C(=O)N[C@@H](Cc1ccccc1)C(=O)N[C@H](C(=O)N[C@@H](CC(N)=O)C(=O)N[C@@H](Cc1c[nH]c2ccccc12)C(=O)N[C@@H](CC(C)C)C(=O)N[C@@H](CC(C)C)C(=O)N[C@@H](C)C(=O)NCC(=O)NCC(=O)N1CCC[C@H]1C(=O)N[C@@H](CO)C(=O)N[C@@H](CO)C(=O)NCC(=O)N[C@@H](C)C(=O)N1CCC[C@H]1C(=O)N1CCC[C@H]1C(=O)N1CCC[C@H]1C(=O)N[C@@H](CO)C(=O)N[C@@H](CCCCN)C(N)=O)C(C)C
Turning to B3, the “Activity for human GLP-1R” value in test [1] is 0.011 nM. Further, the “Activity for human GIPR” value in test [2] is 0.018 nM.

B4: Compound No. 10 (peptide)
peptide: Y[Aib]EGTFTSDYSIYLEKEAAQEFVNWLLAGGPSSGAPPPSK-NH2
modifications: N-terminus assumed
SMILES: CC[C@H](C)[C@H](NC(=O)[C@H](CO)NC(=O)[C@H](Cc1ccc(O)cc1)NC(=O)[C@H](CC(=O)O)NC(=O)[C@H](CO)NC(=O)[C@@H](NC(=O)[C@H](Cc1ccccc1)NC(=O)[C@@H](NC(=O)CNC(=O)[C@H](CCC(=O)O)NC(=O)C(C)(C)NC(=O)[C@@H](N)Cc1ccc(O)cc1)[C@@H](C)O)[C@@H](C)O)C(=O)N[C@@H](Cc1ccc(O)cc1)C(=O)N[C@@H](CC(C)C)C(=O)N[C@@H](CCC(=O)O)C(=O)N[C@@H](CCCCN)C(=O)N[C@@H](CCC(=O)O)C(=O)N[C@@H](C)C(=O)N[C@@H](C)C(=O)N[C@@H](CCC(N)=O)C(=O)N[C@@H](CCC(=O)O)C(=O)N[C@@H](Cc1ccccc1)C(=O)N[C@H](C(=O)N[C@@H](CC(N)=O)C(=O)N[C@@H](Cc1c[nH]c2ccccc12)C(=O)N[C@@H](CC(C)C)C(=O)N[C@@H](CC(C)C)C(=O)N[C@@H](C)C(=O)NCC(=O)NCC(=O)N1CCC[C@H]1C(=O)N[C@@H](CO)C(=O)N[C@@H](CO)C(=O)NCC(=O)N[C@@H](C)C(=O)N1CCC[C@H]1C(=O)N1CCC[C@H]1C(=O)N1CCC[C@H]1C(=O)N[C@@H](CO)C(=O)N[C@@H](CCCCN)C(N)=O)C(C)C
For the molecule B4, the “Activity for human GLP-1R” value in test [1] is 0.097 nM. In test [2], the “Activity for human GIPR” value stood at 0.006 nM.

B5: Compound No. 11 (peptide)
peptide: Y[Aib]EGTFTSDYSIYLEKEAQKEFVNWLLAGGPSSGAPPPSK-NH2
modifications: N-terminus assumed
SMILES: CC[C@H](C)[C@H](NC(=O)[C@H](CO)NC(=O)[C@H](Cc1ccc(O)cc1)NC(=O)[C@H](CC(=O)O)NC(=O)[C@H](CO)NC(=O)[C@@H](NC(=O)[C@H](Cc1ccccc1)NC(=O)[C@@H](NC(=O)CNC(=O)[C@H](CCC(=O)O)NC(=O)C(C)(C)NC(=O)[C@@H](N)Cc1ccc(O)cc1)[C@@H](C)O)[C@@H](C)O)C(=O)N[C@@H](Cc1ccc(O)cc1)C(=O)N[C@@H](CC(C)C)C(=O)N[C@@H](CCC(=O)O)C(=O)N[C@@H](CCCCN)C(=O)N[C@@H](CCC(=O)O)C(=O)N[C@@H](C)C(=O)N[C@@H](CCC(N)=O)C(=O)N[C@@H](CCCCN)C(=O)N[C@@H](CCC(=O)O)C(=O)N[C@@H](Cc1ccccc1)C(=O)N[C@H](C(=O)N[C@@H](CC(N)=O)C(=O)N[C@@H](Cc1c[nH]c2ccccc12)C(=O)N[C@@H](CC(C)C)C(=O)N[C@@H](CC(C)C)C(=O)N[C@@H](C)C(=O)NCC(=O)NCC(=O)N1CCC[C@H]1C(=O)N[C@@H](CO)C(=O)N[C@@H](CO)C(=O)NCC(=O)N[C@@H](C)C(=O)N1CCC[C@H]1C(=O)N1CCC[C@H]1C(=O)N1CCC[C@H]1C(=O)N[C@@H](CO)C(=O)N[C@@H](CCCCN)C(N)=O)C(C)C
With B5, the “Activity for human GLP-1R” value in test [1] came to 0.08 nM. For the same molecule, in test [2], the “Activity for human GIPR” value turned out to be 0.014 nM.
